# In patent publication US20050080013A1 (Pfizer, published 2005):
# Non-standard residues stand in square brackets, D forms with d. No end group written: not given here. Aib = CC(C)(N)C(=O)O
# T1: lecithin:cholesterol acyltransferase (LCAT), purified from human plasma (human, UniProt P04180 25-440)
# T1 sequence (looked up): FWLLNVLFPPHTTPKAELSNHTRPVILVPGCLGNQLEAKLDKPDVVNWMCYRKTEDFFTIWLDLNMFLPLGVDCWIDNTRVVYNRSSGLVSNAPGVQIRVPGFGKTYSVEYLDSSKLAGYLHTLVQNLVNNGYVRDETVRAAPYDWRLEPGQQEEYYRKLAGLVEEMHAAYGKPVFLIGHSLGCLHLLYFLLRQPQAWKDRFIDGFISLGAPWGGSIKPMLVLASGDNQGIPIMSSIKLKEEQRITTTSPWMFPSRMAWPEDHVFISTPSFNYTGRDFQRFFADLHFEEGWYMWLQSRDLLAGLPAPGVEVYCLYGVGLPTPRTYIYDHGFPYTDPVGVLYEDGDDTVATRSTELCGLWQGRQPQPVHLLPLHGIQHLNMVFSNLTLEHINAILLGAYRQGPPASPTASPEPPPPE
# Target: T1, lecithin:cholesterol acyltransferase …
# Assay: cell-based or functional assay
row,Binder,ACTIVITY (%) LCAT
1,PWLDEFREKLNE[Aib]LEALKQKLK [peptide 64],15%
2,PVLDLFRELLNELLEALKQKKK [peptide 56],18%
3,PVLDEWREKLNE[Aib]LEALKQKLK [peptide 62],16%
4,VVLDLFRELLNELLEALKQKLK [peptide 53],19%
5,PVLDLFRELGNELLEALKQKLK [peptide 9],83%
6,PVLDLFRELLNEGLEALKQKLK [peptide 8],83%
7,PLFRELLNELLEALKQKLK [peptide 55],19%
8,LVLDLFRELLNELLEALKQKLK [peptide 59],17%
9,VLDEFREKLNE[Aib]LEALKQKLK [peptide 65],15%
10,PVLDLFRELLNEWLEALKQKLK [peptide 54],19%
11,PVLDFFREKLNE[Aib]LEALKQKLK [peptide 63],16%
12,VLDLFRELLNELLEALKQKLK [peptide 67],14%
13,PVLDEFRWKLNE[Aib]LEALKQKLK [peptide 61],16%
14,PVLDLFRELLNE[Aib]LEALKQKLK [peptide 6],80%
15,PVWDEFREKLNE[Aib]LEALKQKLK [peptide 52],20%
16,PVLDLFRNLLEELLKALEQKLK [peptide 57],18%
17,PVLDLFKELLNELLEALKQKLK [peptide 7],83%
18,PVLDEFREKLNE[Aib]LEALKQKL [peptide 58],18%
19,PVLDLFRNLLEELLEALQKKLK [peptide 66],15%
20,PVLDLFWELLNE[Aib]LEALKQKLK [peptide 51],20%
21,PVLDLFRELLNELLEALKQ [peptide 60],16%
22,PVLDEFRELLKE[Aib]LEALKQKLK [peptide 68],14%

# Next, values leading:
row,ACTIVITY (%) LCAT,Binder
1,6%,PVLDEFRELLNE[Aib]LEALKQKLK [peptide 91]
2,7%,[dP][dL][dL][dE][dL][dL][dK][dE][dL][dL][dQ][dE][dL][dL][dE][dA][dL][dK][dQ][dK][dL][dK] [peptide 87]
3,9%,PVLDEFREKLNK[Aib]LEALKQKLK [peptide 77]
4,9%,PVLDEFRELLNELLEALKQKLK [peptide 79]
5,2%,PVLDLFRELLNL[Aib]LEALKEKLK [peptide 102]
6,2%,PVLDLFRELLNW[Aib]LEALKQKLK [peptide 101]
7,10%,PVLDEFWEKLNE[Aib]LEALKQKLK [peptide 73]
8,7%,PVLDKFRELLNE[Aib]LEALKQKLK [peptide 88]
9,7%,PVLDEFREKLNELLEALKQKLK [peptide 84]
10,4%,PVLDLFRELLNELLE [peptide 97]
11,5%,PVLDEFREKLNEALEALKQKLK [peptide 94]
12,9%,PVLDLFERLLNELLEALQKKLK [peptide 80]
13,2%,PVLDLFRELLNEELEALKQKLK [peptide 98]
14,12%,PVLDEFRELLYE[Aib]LEALKQKLK [peptide 70]
15,11%,PVLDEFREKLNEL[Aib]EALKQKLK [peptide 71]
16,7%,PLDLFRELLNELLEALKQKLK [peptide 85]

row,ACTIVITY (%) LCAT,Binder
1,5%,[dP][dV][dL][dD][dL][dF][dR][dE][dL][dL][dN][dE][Aib][dL][dE][dA][dL][dK][dQ][dK][dL][dK] [peptide 96]
2,7%,PVLELFERLLDELLNALQKKLK [peptide 86]
3,2%,[dP][dV][dL][dD][dL][dF][dR][dE][dL][dL][dN][dE][dL][dL][dE][dA][dL][dK][dQ][dK][dL][dK] [peptide 100]
4,10%,PVLDEFREKLNEELEALKQKLK [peptide 75]
5,5%,PVLDLFRELLNL[Aib]LEALKQKLK [peptide 95]
6,8%,LDEFREKLNE[Aib]LEALKQKLK [peptide 82]
7,10%,PVLDKFREKLNE[Aib]LEALKQKLK [peptide 74]
8,5%,PVLDEFRELYNE[Aib]LEALKQKLK [peptide 92]
9,9%,PVLDEFRELLFE[Aib]LEALKQKLK [peptide 76]
10,13%,PVLDEFRKKLNE[Aib]LEALKQKLK [peptide 69]
11,6%,PVLDEFREKLNE[Aib]LWALKQKLK [peptide 89]
12,2%,KLKQKLAELLENLLERFLDLVP [peptide 99]
13,5%,PVLDEFREKLNE[Aib]LKALKQKLK [peptide 93]
14,11%,PVLDLFRELLNE[Aib]LWALKQKLK [peptide 72]
15,6%,DEFREKLNE[Aib]LEALKQKLK [peptide 90]
